Values belong to the molecule of their own block, whether it stands above or below them.
Tests used:
[1] = target: Peptide 3 (NpuDnaEC16 capture peptide with ANP photocleavable residue); experiment: pull-down; peptide 3 immobilised by its His6 on HisPur Ni-NTA magnetic beads; hCNTF-NpuDnaE(ΔC16) in BYL or HeLa CFPS matrix, overnight, room temperature; captured share from Western blots of the matrix before and after capture; the capture is followed by protein trans splicing, which ligates hCNTF covalently to the peptide's C-terminal stretch
[2] = target: the molecule itself; experiment: SDS-PAGE without β-mercaptoethanol in the loading buffer, Western blot; purified hCNTF standard; anti-hCNTF polyclonal antibody for detection

- amount of hCNTF bound to the beads [1]: 0.42 μg/mg beads
Molecule: hCNTF-NpuDnaE(ΔC16) synthesised in the tobacco BY-2 lysate (BYL) cell free system (from UniProt P26441 1-200)

- amount of hCNTF bound to the beads [1]: 1.14 μg/mg beads
Molecule: hCNTF-NpuDnaE(ΔC16) synthesised in the HeLa cell free system (from UniProt P26441 1-200)

B1: His6-hCNTF (purified human ciliary neurotrophic factor used as standard) (natural protein, UniProt P26441 1-200, looked up)
chain: MAFTEHSPLTPHRRDLCSRSIWLARKIRSDLTALTESYVKHQGLNKNINLDSADGMPVASTDQWSELTEAERLQENLQAYRTFHVLLARLLEDQQVHFTPTEGDFHQAIHTLLLQVAAFAYQIEELMILLEYKIPRNEADGMPINVGDGGLFEKKLWGLKVLQELSQWTVRSIHDLRFISSHQTGIPARGSHYIANNKKM
notes: human ciliary neurotrophic factor, codon optimised gene, plasmid pOPINF-CNTF (Itkonen et al. 2014); also called purified hCNTF; purified His6-hCNTF; source: E. coli Rosetta 2 (DE3) pLysS, purified (Ni-IDA resin, size exclusion chromatography)
- binding result [2]: binds

— paper PMC6086869, “Accelerated pharmaceutical protein development with integrated cell free expression, purification, and bioconjugation” (Scientific Reports, 2018)
